Reference: PMC9060518

Target: KCNQ5-ER-c

- block of KCNQ2/5-tandem currents by 10 mM TEA in HEK293T cells: 48 % block
Substance: KCNQ2-ER-n (from UniProt O43526)
